Measured values published in publication PMC9436119, “Alkaline ceramidase catalyzes the hydrolysis of ceramides via a catalytic mechanism shared by Zn^2+-dependent amidases” (PLoS ONE, 2022).
Numbering of substitutions follows the chain as printed. In names and notes the source's numbering stands. Blank lines part the entries; values can stand above or below the molecule they belong to.

Assays:
[1] = molecular target: T1, alkaline ceramidase 3 (ACER3) (Homo sapiens, UniProt Q9NUN7); test: microsomal ceramidase activity assay with NBD-C12-PHC, HPLC fluorescence; Lineweaver-Burk kinetics; assay type: biochemical
T1 sequence (Q9NUN7 1-267): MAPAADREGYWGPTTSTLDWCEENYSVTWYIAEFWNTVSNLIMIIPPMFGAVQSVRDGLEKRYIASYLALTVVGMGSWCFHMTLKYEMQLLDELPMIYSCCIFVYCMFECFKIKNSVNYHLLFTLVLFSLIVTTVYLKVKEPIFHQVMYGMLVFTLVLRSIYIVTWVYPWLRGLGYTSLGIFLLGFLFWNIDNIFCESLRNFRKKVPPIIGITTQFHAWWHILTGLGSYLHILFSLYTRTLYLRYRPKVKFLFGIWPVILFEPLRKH

[2] = substrate: CCCCCCCCCCCCCC[C@@H](O)[C@@H](O)[C@H](CO)NC(=O)CCCCCCCCCCCNc1ccc([N+](=O)[O-])c2nonc12; test: cells, lysate or membranes; assay type: biochemical, Homo sapiens
[3] = substrate: CCCCCCCCCCCCCC[C@@H](O)[C@@H](O)[C@H](CO)NC(=O)CCCCCCCCCCCNc1ccc([N+](=O)[O-])c2nonc12; test: Michaelis-Menten kinetics (KM), microsomal assay with HPLC fluorescence; assay type: biochemical, Homo sapiens; conditions: Zn2+ (Ca2+ in buffer) Zn2+ active site

- IC50 [1]: 71.4 µM
Molecule: CC(/C=C/C(=O)NO)=C\[C@@H](C)C(=O)c1ccc(N(C)C)cc1 [TSA, Trichostatin A]

B1: alkaline ceramidase 3 (ACER3) (Homo sapiens) (protein)
chain: T1 sequence (Q9NUN7 1-267)
notes: FLAG-tagged open reading frame of wild-type ACER3, in microsomes of yeast Δypc1Δydc1 cells
- Km ([2]; Zn2+ (Ca2+ in buffer) Zn2+ active site (His81, His217, His221, Asp92, Ser77)): 15.48 ± 1.248 µM

B2: alkaline ceramidase 3 (ACER3) (Homo sapiens; S77A) (protein)
chain: T1 sequence (Q9NUN7 1-267) with S77A
notes: FLAG-tagged ACER3 S77A, in microsomes of yeast Δypc1Δydc1 cells
- Km [3]: 38 µM

B3: alkaline ceramidase 3 (ACER3) (Homo sapiens; S77C) (protein)
chain: T1 sequence (Q9NUN7 1-267) with S77C
notes: FLAG-tagged ACER3 S77C, in microsomes of yeast Δypc1Δydc1 cells
- Km ([2]; Zn2+ (Ca2+ in buffer) Zn2+ active site): 66.43 ± 6.143 µM
